Reference: US7704703B2, “Arf and Hdm2 interaction domains and the methods of use thereof” (St. Jude Children's Research Hospital, Inc., priority 2002, dated 2010)
“Also recorded” adds a separate entry of the source.

Experiments:
[1] = target: T1, Hdm2 210-304 (Homo sapiens, UniProt Q00987); test: Surface plasmon resonance: Arf library peptides binding to immobilized His-tagged Hdm2 210-304; conditions: 15 amino acid peptides; maximal SPR signal after binding for 10 minutes
T1 construct: poly-His (thrombin cleavable, pET28a) (cleaved yes); made in house; host or cells: E. coli BL21(DE3)
Description: (§1) Surface Plasmon Resonance. Binding studies were performed using a Biacore 3000 surface plasmon resonance (SPR) instrument (Biacore, Inc.). A Tetra-His™ Antibody (Qiagen, Inc.; Cat. #34670) was covalently attached to a carboxymethylated gold surface (C-1 chip; Biacore, Inc.). The carboxymethyl groups on the surface were activated with N-ethyl-N′-(3-dimethylaminopropyl) carbodiimide (EDC) and N-hydroxysuccinimide (NHS) and the antibody was attached at pH 7.4 in 20 mM sodium phosphate buffer, 150 mM NaCl (PBS). Reactive sites remaining on the surface were blocked by reaction with ethanolamine. […] Binding was measured by flowing the non-His-tagged analyte through the reference and ligand-containing flow cells in sequence. […] Changes in the SPR response due to solvent differences and the injection process were monitored by injection of HBS-N buffer alone. […]
Two libraries of peptides 15 amino acids in length were synthesized based on the sequence of exon 1β of mouse p19^Arf and the entire sequence of human p14^Arf. […] The ability of these peptides to bind Hdm2 fragments was determined using the surface plasmon resonance (SPR) technique with a Biacore 3000 instrument. […] Relative binding affinity was judged on the basis of the maximal SPR signal detected after binding for 10 minutes.

[2] = target: T2, mArfN37 (Mus musculus, UniProt Q64364); test: Surface plasmon resonance: Hdm2 fragments and peptides binding to immobilized His-tagged mArfN37
T2 construct: mouse p19^Arf corresponding to residues 1-37 (mArfN37); made in house; host or cells: E. coli BL21(DE3) (purified 'in a similar manner' to the Hdm2 fragments)
T2 sequence (Q64364 1-37 limits assumed): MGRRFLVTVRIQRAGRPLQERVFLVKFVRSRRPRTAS
Description: as §1
Small segments of Arf and Hdm2 participate in Arf/Hdm2 interactions. […] However, because mArfN37 is a relatively small polypeptide, it was determined whether it could bind a correspondingly small segment of Hdm2. To test this hypothesis and to monitor Arf/Hdm2 binding reactions quantitatively, Hdm2 constructs were prepared spanning amino acids 210-304 of SEQ ID NO:8 and 210-275 of SEQ ID NO:8 and then it was determined whether they could bind mArfN37 using surface plasmon resonance (SPR). […]

[3] = target: T3, GFP-p19^Arf (Mus musculus, UniProt Q64364); test: Microinjection and live cell imaging of Texas Red labeled Hdm2 constructs in NIH 3T3 cells lacking Arf; format: cell-based; conditions: for localization after nuclear microinjection in the presence of GFP-p19^Arf: transfected with GFP-p19^Arf
T3 construct: expressed in transfected cells; host or cells: NIH 3T3 Arf-/- cells
T3 sequence (Q64364 1-169): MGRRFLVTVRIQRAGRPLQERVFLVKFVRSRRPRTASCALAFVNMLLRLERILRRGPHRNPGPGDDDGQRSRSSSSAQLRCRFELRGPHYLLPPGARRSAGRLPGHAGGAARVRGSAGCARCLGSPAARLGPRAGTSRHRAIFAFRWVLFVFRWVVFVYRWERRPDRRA
Description: Fluorescent labeling. Proteins for fluorescence microimaging studies were covalently modified using an amine-reactive, sulfosuccinimidyl ester of TEXAS RED® (C31H29S2N2O6Cl1) (Molecular Probes, Inc., Cat. # C-1171). In brief, purified Hdm2-derived proteins were dialyzed into 100 mM sodium bicarbonate buffer, pH 8.3 at 2-4 mg/ml. The Texas Red™ dye was dissolved in dimethylsulfoxide at 10 mg/ml. Protein and dye 3:1 (vol:vol) were reacted for 1 hour at room temperature followed by purification using size-exclusion chromatography (NAP 5 G-25 columns, Amersham Pharmacia Biotech, Inc.). Labeled protein bands migrated more slowly than unlabeled protein in SDS-polyacrylamide gels consistent with the covalent attachment of dye.
Cell culture and microinjection. NIH 3T3 Arf^−/− cells passage 10-15 were cultured in Dulbecco's modified Eagle's medium (Dulbecco's modified Eagle's medium (DMEM); Gibco-Invitrogen, Inc.), 10% fetal bovine serum (FBS) at 37° C., 7% CO2. […] GFP-Arf positive cells were then located and co-injected with TEXAS RED® (C31H29S2N2O6C1 labeled Hdm2 polypeptides (2 mg/ml in 20 mM Tris-HCl, 100 mM NaCl, pH 7.0) using a Micromanipulator 5171/Transjector 5246 (Eppendorf, AG) in media supplemented with 10 mM HEPES, pH 7.2 to buffer cell media during injection and imaging. Representative cells were imaged over time. An Axiovert 135 TV inverted fluorescence microscope with an automated stage controller (Carl Zeiss, Inc.) and circulating water bath heater (Fisher) was used for both microinjection and imaging. Images were acquired with a Zeiss 40×NA=1.30 oil objective and MicroMax CCD camera (Princeton Instruments Inc.) operated with MetaMorph Version 4.01 imaging software. […]
TEXAS RED® (C31H29S2N2O6Cl1) labeled Hdm2 deletion constructs containing residues 210-275, 210-304, 277-350 and 277-491 were individually injected into cells in the absence or presence of the GFP-p19^Arf fusion protein. […] The use of live cell imaging also allowed the kinetics of localization to be monitored. […]

T1 sequence (Q00987 210-304): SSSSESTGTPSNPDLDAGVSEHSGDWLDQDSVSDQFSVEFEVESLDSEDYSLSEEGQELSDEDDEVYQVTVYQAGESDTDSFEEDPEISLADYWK

| binding of Arf library peptides to Hdm2 210-304 (SPR) [1] | Substance | localization after nuclear microinjection in the presence of GFP-p19^Arf [3] | further results |
| --- | --- | --- | --- |
| binds Hdm2 210-304 | human Arf peptide residues 86-100: human p14^Arf library 15-mer spanning residues 86-100, contains the NoLS RRPR (LRRPRHSHPTRARRC; UniProt Q8N726 86-100, looked up, fragment) |  |  |
|  | Hdm2 210-304: Arf-binding domain of Hdm2, amino acids 210-304 of SEQ ID NO:8 | co-localized within nucleoli; also recorded: nucleolar localization | binding of Hdm2 fragment to His-tagged mArfN37 immobilized on SPR biosensor surface ([2]; Hdm2 protein fragments as analyte, no binding to control surface): bind tightly; localization after nuclear microinjection in the absence of Arf ([3]; no GFP-p19^Arf): evenly dispersed in the nucleoplasm |
|  | peptide containing residues 290-304: short synthetic Hdm2 peptide, residues 290-304 of SEQ ID NO:8 (SFEEDPEISLADYWK; listed as Homo sapiens) |  | relative affinity of Hdm2 synthetic peptides for mArfN37 (SPR) ([2]; 15 amino acid peptides of the central region of Hdm2): modest affinity |
|  | Hdm2 277-491: Texas Red labeled Hdm2 deletion construct containing residues 277-491 | nucleolar localization |  |
| bind Hdm2 210-304 | mouse Arf peptide residues 31-45: mouse p19^Arf library 15-mer spanning residues 31-45, contains the RRPR nucleolar localization signal (RRPRTASCALAFVNM; UniProt Q64364 31-45, looked up, fragment) |  |  |
